Positions count from the first letter of the chain named.
B1: PRT-318 (protein)
chain: MTITSVWTKGVTPPTPEDFRYNNEDVLHAPYVANQGWYDITKTFDGKDNLLCGAATAGNMLHWWFDQNKEEIERYLKKHPEKQKIIFNNQEWFDVKAAIDTKDSQTNSKLFDYFRDKAFPNLSARQLGVMPDLVLDMFINGYYLNLGKTQSTDVNRPYQDKDKRGGIFDAVFTRGDQTTLLTARHDLKNKGLNEISDLIKQELTEGKALALSHTYANVRINHVINLWGADFDAEGNLIAIYVTDSDANASIGMKKYFVGVNANGKVAISAKKIEGDNIGAQVLGLFTLSLGQDIWQKLS
B2: PRT-334 (protein)
chain: B1 chain with Y21E, N88G, W92L, N121G, M130F, D176V, N236E, A249P, V260R, L290T
B3: PRT-327 (protein)
chain: B1 chain with Y21E, W92L, N236E, A249P, V260R, L290T
B4: PRT-319 (protein)
chain: B1 chain with Y21E, W92L, V260R
B5: PRT-328 (protein)
chain: B1 chain with Y21K, W92L, D112N, N121G, M130F, D176V, V260R, L290T
B6: PRT-326 (protein)
chain: B1 chain with Y21E, N88G, W92L, N236E, A249P, V260R, L290T, I294Q
B7: PRT-320 (protein)
chain: B1 chain with Y21E, N88G, W92L, V260R, L290T, I294Q
B8: PRT-295 (protein)
chain: MVTSVWTKGVTPPADFTQGEDVFHAPYDANQGWYDITKTFNGKDDLLCGAATAGNMLHWWFDQNKEYIEAYLKKHPEKQKIMFGDQELLDVRKAINTKGSQKNSELFNYFRDKAFPNLSARRLGVMPDLVLDMFINGYYLNVTKTQTTDVNRTYQEKDKRGGIFDAVFTRGDQSKLLTSRHDFKEKGLKEISDLIKQELTEGKALGLSHTYANVRISHVINLWGADFDSDGNLKAIYVTDSDSNASIGMKKYFVGVNSSGKVAISAKEIKEDNIGAQVLGLFTLSTGQDIWNQTN
B9: PRT-296 (protein)
chain: B8 chain with D28V, T39E, S217G, F253G, S259A
B10: PRT-303 (protein)
chain: B8 chain with A14T, T17I, Q18K, N30G, F253G, S259A
B11: PRT-304 (protein)
chain: B8 chain with A14T, T17I, Q18K, N30G
B12: PRT-350 (protein)
chain: MSQTEDSESLQRLRDIEDFQAEKKDQNVVYTKWLDGVDVKDHDFRKIVDGNSAYYATPLLNGRGWYDINKDFNRDSDKCAAAVAANMFHYWLDINRDNVDRFLRQNPEKHGIIELPDGQLKLSDFLNTYESDHGYRDKSKLFDFISENFNGPVWTDKLLDNYINGYAYNYKYGRTIEDPTKNTSKINFFKEVFNEKILTNNHSIRNQNEFSVLLIEALYTGKAIGLSYGPAGLRHSLGHIISVWGADLDADGNVVAIYVTDSDDKKLTIGDERVGLKRYKISTDDENRLRLTAYEETHNTGGQVRGLWTLDTGKYAWADYFDKTEQTGTDQAEQ
B13: PRT-351 (protein)
chain: B12 chain with D25M, W65F, V304I
B14: PRT-358 (protein)
chain: B12 chain with S52I, I94R, H133D, N287G, Y315Q
B15: PRT-335 (protein)
chain: MTITSVWTKGVTPPTPEDFRENNEDVLHAPYVANQGWYDITKTFDGKDNLLCGAATAGNMLHWWFDQNKEEIERYLKKHPEKQKIIFGNQELFDVKAAIDTKDSQTNSKLFDYFRDKAFPGLSARQLGVFPDLVLDMFINGYYLNLGKTQSTDVNRPYQDKDKRGGIFDAVFTRGVQTTLLTARHDLKNKGLNEISDLIKQELTEGKALALSHTYANVRINHVINLWGADFDAEGELIAIYVTDSDANPSIGMKKYFVGRNANGKVAISAKKIEGDNIGAQVLGLFTLSTGQDQWQKLS
B16: PRT-311 (protein)
chain: MQITSVWTKGVTPLTPEQFRENNEDVIHAPYLAHQGWYDITKAFDGKDNLLCGAATAGNMLHWWFDQNKTEIEAYLSKHPEKQKIIFNNQEWFDLKAAIDTKDSQTNSQLFNYFRDKAFPNLSARQLGVMPDLVLDMFINGYYLNVPKTQSTDVNRPYQDKDKRGGIFDAVFTRGDQTTLLTARHDLKNKGLNDISTIIKQELTEGRALALSHTYANVSISHVINLWGADFNAEGNLEAIYVTDSDANASIGMKKYAVGINAHGHVAISAKKIEGENIGAQVLGLFTLSSGKDIWQKLS
B17: PRT-312 (protein)
chain: B16 chain with N88G, W92L, P147G, A249P, A257F, I260R
B18: PRT-366 (protein)
chain: MSQTEDSESLQRLRDIEDFQAEKEKQNVVYTKWLDGVDVKDHDFRKIVDGNSAYYATPLLNGRGFYDINKDFNRDNDKCAAAVAANMFHYWLDRNRDNVDRFLRQNPEKHGIIELPDGQLKLSDFLNTYESDDGYRDKSKLFDFISNNFNGPVWTDKLLDNYINGYAYNYKYGRTIEDSTKNTSKINFFKEVFNEKILTNNHSIRNQNEFSVLLSEALYTGKAIGLSYGPAGLRHSLGHIISVWGADLDADGNVVAIYVTDSDDKKLTIGDERVGLKRYKISTDDEGRLRLTAYEETHNTGGQVRGLWTLDTGKQAWADYFDKTEQTGTDQAEQ
B19: PRT-342 (protein)
chain: MTITSVWTKGVTPPTPEDFRENNEDVLHAPYLANQGWYDITKAFDGKDNLLCGAATAGNMLHWWFDQNKEEIERYLKKHPEKQKIIFGNQELFDVKAAIDTKDSQTNSKLFNYFRDKAFPNLSARQLGVMPDLVLDMFINGYYLNLGKTQSTDVNRPYQDKDKRGGIFDAVFTRGDQTTLLTARHDLKNKGLNEISDLIKQELTEGKALALSHTYANVSINHVINLWGADFDAEGNLEAIYVTDSDANPSIGMKKYFVGRNAHGKVAISAKKIEGDNIGAQVLGLFTLSTGQDIWQKLS
B20: PRT-343 (protein)
chain: B19 chain with N112D, N236E

Biological target: pooled human IgG (human IgG1,2,3 and 4)

Protein | Enzyme Activity Endpoint Assay (purified): Fab'2 [ng/µL] | Enzyme Activity Endpoint Assay (purified): Fc [ng/µL] | Enzyme Activity Endpoint Assay (purified): IgG [ng/µL] | Enzyme Activity Endpoint Assay (purified): scIgG [ng/µL]
B1 | 641 | 365 | 110 | 100
B2 | 59 | 257 | 154 | 738
B3 | 460 | 338 | 472 | 0
B4 | 670 | 372 | 32 | 0
B5 | 1000 | 455 | 75 | 0
B6 | 588 | 429 | 458 | 0
B7 | 778 | 339 | 53 | 0
B8 | 529 | 398 | 446 | 0
B9 | 955 | 443 | 0 | 0
B10 | 1080 | 482 | 0 | 0
B11 | 711 | 320 | 0 | 0
B12 | 520 | 243 | 668 | 200
B13 | 37 | 191 | 86 | 638
B14 | 8 | 90 | 86 | 375
B15 | 38 | 154 | 74 | 514
B16 | 261 | 295 | 109 | 496
B17 | 703 | 330 | 53 | 54
B18 | 0 | 122 | 777 | 472
B19 | 15 | 209 | 206 | 841
B20 | 154 | 266 | 129 | 682
